Where no end group is shown, it is not given here. The star is where a group is joined. Biotin = O=C1N[C@H]2[C@H](CS[C@H]2CCCCC(=O)*)N1
How the values were obtained:
human GPR20 protein [1] = target: T1, human GPR20 protein (human, UniProt Q99678 1-358); test: flow cytometry, hybridoma culture supernatant on 293T cells transiently expressing human GPR20 versus empty-vector 293T cells, anti-rat IgG FITC
T1 construct: membrane fraction on SDS-PAGE for the Western blot; also called hGPR20; G protein-coupled receptor 20
Method: The cells were left standing at 4° C. for 1 hour. […] The cells were left standing at 4° C. for 1 hour.

[2] = target: T2, GPR20 fragment peptide GLEVPLFHLFARLDE (human, SMILES …); test: BLI (Octet RED384), peptide on streptavidin sensor, antibody as analyte, 1:1 model
T2 construct: Captured on streptavidin sensor chips
T2 peptide: Biotin-GLEVPLFHLFARLDE-NH2
From the text: (§1) For the detailed analysis of the epitope, a peptide consisting of amino acid positions 29 to 48 of GPR20, and peptides in which a terminal amino acid residue was continuously truncated one by one from this peptide, were synthesized, and then N-terminally biotinylated and C-terminally amidated to produce a GPR20 fragment peptide library (Sigma-Aldrich Japan G.K.). […] PBS-T was used as a buffer solution, and the sensor chips used were streptavidin sensor chips (manufactured by Pall ForteBio Corp.). […] Subsequently, the sensor chip was dipped in the buffer solution, and a dissociation phase was monitored for 270 seconds. […] The data was analyzed using 1:1 binding models to calculate association rate constant ka, dissociation rate constant kd and dissociation constant KD (KD=kd/ka).

[3] = target: T3, GPR20 fragment peptide GLEVPLFHLFARLDEEL (human, SMILES …); test: as above
T3 construct: Captured on streptavidin sensor chips
T3 peptide: Biotin-GLEVPLFHLFARLDEEL-NH2
From the text: as §1

[4] = target: T4, GPR20 fragment peptide GLEVPLFHLFARL (human, SMILES …); test: as above
T4 construct: Captured on streptavidin sensor chips
T4 peptide: Biotin-GLEVPLFHLFARL-NH2
From the text: as §1

[5] = target: T5, GPR20 fragment peptide GLEVPLFHLFARLD (human, SMILES …); test: as above
T5 construct: Captured on streptavidin sensor chips
T5 peptide: Biotin-GLEVPLFHLFARLD-NH2
From the text: as §1

[6] = target: T6, GPR20 fragment peptide VPLFHLFARLDEEL (human, SMILES …); test: as above
T6 construct: Captured on streptavidin sensor chips
T6 peptide: Biotin-VPLFHLFARLDEEL-NH2
From the text: as §1

[7] = target: T7, GPR20 fragment peptide LEVPLFHLFARLDEEL (human, SMILES …); test: as above
T7 construct: Captured on streptavidin sensor chips
T7 peptide: Biotin-LEVPLFHLFARLDEEL-NH2
From the text: as §1

[8] = target: T8, GPR20 fragment peptide GLEVPLFHLFARLDEELHGT (human, N-terminally biotinylated and C-terminally amidated); test: as above
T8 construct: Captured on streptavidin sensor chips; also called peptide consisting of amino acid positions 29 to 48 of GPR20
T8 peptide: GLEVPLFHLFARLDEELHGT
From the text: as §1

[9] = target: T9, GPR20 fragment peptide GLEVPLFHLFAR (human, SMILES …); test: as above
T9 construct: Captured on streptavidin sensor chips
T9 peptide: Biotin-GLEVPLFHLFAR-NH2
From the text: as §1

[10] = target: T10, GPR20 fragment peptide EVPLFHLFARLDEEL (human, SMILES …); test: as above
T10 construct: Captured on streptavidin sensor chips
T10 peptide: Biotin-EVPLFHLFARLDEEL-NH2
From the text: as §1

[11] = target: T11, GPR20 fragment peptide GLEVPLFHLFARLDEE (human, SMILES …); test: as above
T11 construct: Captured on streptavidin sensor chips
T11 peptide: Biotin-GLEVPLFHLFARLDEE-NH2
From the text: as §1

[12] = target: T12, C-terminally biotinylated synthetic peptide 1 consisting of amino acids at positions 1 to 48 from the … (human, C-terminally biotinylated); test: peptide-ELISA, biotinylated peptide on NeutrAvidin plate, antibody at 1 µg/mL, anti-rat IgG-peroxidase, chemiluminescence
T12 construct: Captured on NeutrAvidin plates
T12 peptide: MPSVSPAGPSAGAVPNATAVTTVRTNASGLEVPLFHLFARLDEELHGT
Method: NeutrAvidin (Pierce/Thermo Fisher Scientific Inc.) diluted to 1 μg/mL with PBS was added at 100 μL/well to 96-well Maxisorp plate (Nunc), and the plate was left standing overnight at 4° C. The solution was removed, and the plate was washed three times with 300 μL/well of PBS containing 0.05% Tween 20 (hereinafter, referred to as PBST). […] The plate was left standing at room temperature for 1 hour. The solution was removed from the plate, and each well was washed three times with PBST. Then, Blocker Casein in PBS (Thermo Fisher Scientific Inc.) was added at 100 μL/well, and the plate was left standing overnight at room temperature. The solution was removed, and each well was washed three times with PBST. […] The solution was removed, and each well was washed three times with PBST. Then, Anti-Rat IgG-Peroxidase antibody produced in rabbit (Jackson ImmunoResearch Laboratories, Inc.) 500-fold diluted with PBS was added at 100 μL/well, and the plate was left standing at room temperature for 1 hour. The solution was removed, and each well was washed three times with PBST. Then, SuperSignal ELISA Pico Chemiluminescent Substrate was added at 100 μl/well, and the plate was left standing at room temperature for 10 minutes, followed by the measurement of chemiluminescence using a plate reader (SpectraMax M3, Molecular Devices, LLC).

[13] = target: T13, synthetic peptide 2 consisting of amino acid positions 30 to 48 of human GPR20 (human, also: biotinylated, position not given here); test: as above
T13 construct: Captured on NeutrAvidin plates
T13 peptide: LEVPLFHLFARLDEELHGT

human GPR20 protein [14] = target: T1, human GPR20 protein; test: immunohistochemistry on paraffin-embedded GIST430 and GIST430/654 preparations, PC-3 as GPR20-negative control, DAB
Method: Deparaffinization and antigen retrieval were carried out at 97° C. for 40 minutes with an antigen retrieval solution (Target Retrieval Solution High pH; manufactured by Dako/Agilent Technologies Inc.) using a pretreatment system for Autostainer Link (PT Link; manufactured by Dako/Agilent Technologies Inc.). Subsequent staining procedures were carried out at room temperature using an automatic staining apparatus (Dako Autostainer Link 48; manufactured by Dako/Agilent Technologies Inc.). After washing once with EnVision FLEX WASH BUFFER (manufactured by Dako/Agilent Technologies Inc.), Peroxidase Block 3% H2O2 (manufactured by Dako/Agilent Technologies Inc.) was added to the cells, which were then incubated for 5 minutes and washed once with EnVision FLEX WASH BUFFER. Protein Block serum free (manufactured by Dako/Agilent Technologies Inc.) was added to the cells, which were then incubated for 30 minutes. The solution was removed by air blow. A rat monoclonal anti-GPR20 antibody, a rabbit chimeric anti-GPR20 antibody or a rabbit type anti-GPR20 antibody was diluted into 1.0 μg/mL to 10 μg/mL with REAL Antibody Diluent (manufactured by Dako/Agilent Technologies Inc.) and reacted with the cells for 30 minutes.
DAKO Liquid DAB+Substrate Chromogen System was added to the cells, which were then incubated for a total of 10 minutes and then washed once with EnVision FLEX WASH BUFFER. EnVision FLEX Hematoxylin was added to the cells, which were incubated for 5 minutes and then washed a total of three times with EnVision FLEX WASH BUFFER and ion-exchanged water.

B1: rat anti-human GPR20 antibody 04-093 (antibody, rat IgG2b)
heavy: EVQLVESGGGLVQPGRSLKLSCVASGFTFNNYWMTWIRQAPGKGLEWVASITNIDGSSYYPDSVKGRFTISRDNVKSTLYLQMNSLRSEDTATYYCTRGSFDYWGQGVMVTVSSAQTTAPSVYPLAPGCGDTTSSTVTLGCLVKGYFPEPVTVTWNSGALSSDVHTFPAVLQSGLYTLTSSVTSSTWPSQTVTCNVAHPASSTKVDKKVERRNGGIGHKCPTCPTCHKCPVPELLGGPSVFIFPPKPKDILLISQNAKVTCVVVDVSEEEPDVQFSWFVNNVEVHTAQTQPREEQYNSTFRVVSALPIQHQDWMSGKEFKCKVNNKALPSPIEKTISKPKGLVRKPQVYVMGPPTEQLTEQTVSLTCLTSGFLPNDIGVEWTSNGHIEKNYKNTEPVMDSDGSFFMYSKLNVERSRWDSRAPFVCSVVHEGLHNHHVEKSISRPPGK
light: DIQMTQSPSVLSASVGDRVTLNCKASQNVNKYLNWFQQKLGEPPKLLIYNTNNLQTGIPSRFSGSGSGTDYTLTISSLQPEDVATYFCFQHVSWLTFGSGTKLEIKRADAAPTVSIFPPSTEQLATGGASVVCLMNNFYPRDISVKWKIDGTERRDGVLDSVTDQDSKDSTYSMSSTLSLTKADYESHNLYTCEVVHKTSSSPVVKSFNRNEC
notes: Rat IgG2b, kappa, from a hybridoma; the full-length chains were made by linking them to known rat constant regions (IMGT IGHG2B*01, IGKC*01); also called 04-093 antibody; rat anti-GPR20 antibody 04-093
Human GPR20 protein [1]
  binding result: binds
[2]
  Kd: < 0.001 nM
[3]
  Kd: < 0.001 nM
[4]
  Kd: 1.1 nM
[5]
  Kd: < 0.001 nM
[6]
  Kd: 5.7 nM
[7]
  Kd: < 0.001 nM
[8]
  Kd: < 0.001 nM
[9]
  Kd: 13 nM
[10]
  Kd: 1.1 nM
[11]
  Kd: < 0.001 nM
[12]
  binding result: binds
[13]
  binding result: binds

B2: rabbit chimeric anti-GPR20 antibody OcChimera (antibody)
heavy: EVQLVESGGGLVQPGRSLKLSCVASGFTFNNYWMTWIRQAPGKGLEWVASITNIDGSSYYPDSVKGRFTISRDNVKSTLYLQMNSLRSEDTATYYCTRGSFDYWGQGVMVTVSSGQPKAPSVFPLAPCCGDTPSSTVTLGCLVKGYLPEPVTVTWNSGTLTNGVRTFPSVRQSSGLYSLSSVVSVTSSSQPVTCNVAHPATNTKVDKTVAPSTCSKPTCPPPELLGGPSVFIFPPKPKDTLMISRTPEVTCVVVDVSQDDPEVQFTWYINNEQVRTARPPLREQQFNSTIRVVSTLPITHQDWLRGKEFKCKVHNKALPAPIEKTISKARGQPLEPKVYTMGPPREELSSRSVSLTCMINGFYPSDISVEWEKNGKAEDNYKTTPAVLDSDGSYFLYNKLSVPTSEWQRGDVFTCSVMHEALHNHYTQKSISRSPGK
light: DIQMTQSPSVLSASVGDRVTLNCKASQNVNKYLNWFQQKLGEPPKLLIYNTNNLQTGIPSRFSGSGSGTDYTLTISSLQPEDVATYFCFQHVSWLTFGSGTKLEIKRDPVAPSVLLFPPSKEELTTGTATIVCVANKFYPSDITVTWKVDGTTQQSGIENSKTPQSPEDNTYSLSSTLSLTSAQYNSHSVYTCEVVQGSASPIVQSFNRGDC
notes: 04-093 variable regions on rabbit IGHG*02 and IGKC2*01 constant regions; also called rabbit chimeric antibody; OcHch/OcLch
Human GPR20 protein [14]
  binding result: binds

B3: rabbit type anti-GPR20 antibody OcH1L1 (antibody, V domains shown)
VH: EVQLKESGGGLVKPGGSLKLCCKASGFTFNNYWMTWIRQAPGKGLEWIASITNIDGSSYYASWVNGRFTLSRDNAQSTVCLQLNSLTAADTATYFCTRGSFDYWGQGTLVTVSS
VL: DIVMTQTPSPVSAAVGGTVTINCKASQNVNKYLNWFQQKPGQPPKLLIYNTNNLQTGVPSRFSGSGSGTDYTLTISGVQCDDAATYYCFQHVSWLTFGGGTEVVVKG
notes: CDR-grafted rabbit type form of 04-093; also called OcH01/OcL01
Human GPR20 protein [14]
  binding result: binds

B4: rabbit type anti-GPR20 antibody OcH2L1 (antibody, V domains shown)
VH: EVQLKESGGGLVKPGGSLKLSCKASGFTFNNYWMTWIRQAPGKGLEWIASITNIDGSSYYPDSVKGRFTISRDNAQSTLYLQLNSLTAADTATYFCTRGSFDYWGQGTLVTVSS
VL: DIVMTQTPSPVSAAVGGTVTINCKASQNVNKYLNWFQQKPGQPPKLLIYNTNNLQTGVPSRFSGSGSGTDYTLTISGVQCDDAATYYCFQHVSWLTFGGGTEVVVKG
notes: CDR-grafted rabbit type form of 04-093; also called OcH02/OcL01
Human GPR20 protein [14]
  binding result: binds
